Experiments:
[1] = target: SARS-CoV-2 spike protein, WA1/2020, borne on lentiviral pseudovirus (SARS-CoV-2, WA01/2020 strain, UniProt P0DTC2 14-1273); experiment: cell-based or functional assay
[2] = target: SARS-CoV (2003) spike protein borne on lentiviral pseudovirus (SARS-CoV (2003), UniProt P59594 14-1255); experiment: cell-based or functional assay
MERS-COV (S2) = target: T1, MERS-COV (S2); experiment: dose-response ELISA on coated spike antigen
T1 chain: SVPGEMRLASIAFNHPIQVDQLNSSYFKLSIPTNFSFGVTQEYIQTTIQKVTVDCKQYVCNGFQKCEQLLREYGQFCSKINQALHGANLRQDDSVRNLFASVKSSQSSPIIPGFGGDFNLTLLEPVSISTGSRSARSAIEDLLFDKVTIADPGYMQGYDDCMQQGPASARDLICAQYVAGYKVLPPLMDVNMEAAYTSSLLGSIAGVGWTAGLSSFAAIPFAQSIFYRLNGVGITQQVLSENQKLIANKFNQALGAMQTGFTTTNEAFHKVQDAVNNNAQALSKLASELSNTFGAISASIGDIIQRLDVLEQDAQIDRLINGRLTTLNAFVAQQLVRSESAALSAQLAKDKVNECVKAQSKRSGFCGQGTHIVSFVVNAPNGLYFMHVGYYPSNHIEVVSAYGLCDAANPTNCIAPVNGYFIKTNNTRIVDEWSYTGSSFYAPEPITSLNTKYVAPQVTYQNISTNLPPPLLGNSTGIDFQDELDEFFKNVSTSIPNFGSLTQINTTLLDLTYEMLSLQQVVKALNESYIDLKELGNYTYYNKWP

[3] = target: T2, SARS-CoV-2 spike (S) protein trimer, WA01/2020 strain (SARS-CoV-2, WA01/2020 strain, UniProt P0DTC2 16-1213); experiment: dose-response ELISA on coated spike antigen
MERS-COV (S1+S2) = target: T3, MERS-COV (S1+S2); experiment: dose-response ELISA on coated spike antigen
T3 chain: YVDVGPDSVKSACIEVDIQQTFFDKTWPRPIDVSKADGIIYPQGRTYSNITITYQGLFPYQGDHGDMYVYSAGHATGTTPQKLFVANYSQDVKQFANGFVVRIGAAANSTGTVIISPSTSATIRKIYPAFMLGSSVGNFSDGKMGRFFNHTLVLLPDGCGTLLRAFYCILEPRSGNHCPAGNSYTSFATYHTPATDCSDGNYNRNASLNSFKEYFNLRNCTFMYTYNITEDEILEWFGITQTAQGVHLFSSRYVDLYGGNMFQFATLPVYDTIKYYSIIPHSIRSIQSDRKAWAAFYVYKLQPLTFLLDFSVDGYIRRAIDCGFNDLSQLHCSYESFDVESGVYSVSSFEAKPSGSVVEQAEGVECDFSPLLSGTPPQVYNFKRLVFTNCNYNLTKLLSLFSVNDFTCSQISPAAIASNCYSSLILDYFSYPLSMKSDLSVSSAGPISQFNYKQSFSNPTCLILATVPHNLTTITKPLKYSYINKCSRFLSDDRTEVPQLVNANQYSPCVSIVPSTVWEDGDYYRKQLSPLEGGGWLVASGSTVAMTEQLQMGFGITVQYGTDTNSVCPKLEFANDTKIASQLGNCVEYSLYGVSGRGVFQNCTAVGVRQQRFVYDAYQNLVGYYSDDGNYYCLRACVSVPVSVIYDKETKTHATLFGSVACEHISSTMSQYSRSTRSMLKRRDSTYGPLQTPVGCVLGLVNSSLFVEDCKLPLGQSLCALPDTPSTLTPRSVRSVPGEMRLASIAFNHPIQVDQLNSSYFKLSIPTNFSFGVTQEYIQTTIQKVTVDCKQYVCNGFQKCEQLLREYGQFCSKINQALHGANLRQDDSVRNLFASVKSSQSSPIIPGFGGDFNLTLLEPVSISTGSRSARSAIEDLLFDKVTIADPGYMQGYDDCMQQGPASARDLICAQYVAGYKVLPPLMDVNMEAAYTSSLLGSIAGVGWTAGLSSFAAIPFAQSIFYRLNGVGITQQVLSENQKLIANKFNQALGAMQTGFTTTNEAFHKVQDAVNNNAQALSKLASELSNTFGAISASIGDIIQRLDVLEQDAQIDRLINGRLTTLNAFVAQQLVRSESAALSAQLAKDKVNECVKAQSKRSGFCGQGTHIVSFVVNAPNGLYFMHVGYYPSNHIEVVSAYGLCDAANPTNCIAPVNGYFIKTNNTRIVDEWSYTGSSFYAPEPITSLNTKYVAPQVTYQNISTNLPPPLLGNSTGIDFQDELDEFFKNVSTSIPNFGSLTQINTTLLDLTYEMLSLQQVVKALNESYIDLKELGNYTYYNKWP

[4] = target: T4, S2 subunit of the SARS-CoV-2 spike protein, WA01/2020 strain (SARS-CoV-2, WA01/2020 strain, UniProt P0DTC2 686-1213); experiment: ELISA, antibody at 0.1 ug/mL
[5] = target: T5, SARS-CoV-2 nucleocapsid (N) protein (SARS-CoV-2, UniProt P0DTC9 1-419); experiment: ELISA, antibody at 0.1 ug/mL
[6] = target: T4, S2 subunit of the SARS-CoV-2 spike …; experiment: ELISA screening, antibody concentration not given
[7] = target: T2, SARS-CoV-2 spike (S) protein trimer, …; experiment: ELISA screening, antibody concentration not given
[8] = target: T6, S1 subunit of the SARS-CoV-2 spike protein, WA01/2020 strain (SARS-CoV-2, WA01/2020 strain, UniProt P0DTC2 16-685); experiment: ELISA screening, antibody concentration not given
[9] = target: T5, SARS-CoV-2 nucleocapsid (N) protein; experiment: ELISA screening, antibody concentration not given
[10] = target: T2, SARS-CoV-2 spike (S) protein trimer, …; experiment: dose-response ELISA on coated antigen
[11] = target: T6, S1 subunit of the SARS-CoV-2 spike …; experiment: dose-response ELISA on coated antigen
[12] = target: T5, SARS-CoV-2 nucleocapsid (N) protein; experiment: ELISA, antibody at 0.1 ug/mL; remark: listed apart in the source
[13] = target: T4, S2 subunit of the SARS-CoV-2 spike …; experiment: dose-response ELISA on coated spike antigen
[14] = target: T6, S1 subunit of the SARS-CoV-2 spike …
[15] = target: T6, S1 subunit of the SARS-CoV-2 spike …; experiment: dose-response ELISA
[16] = target: T2, SARS-CoV-2 spike (S) protein trimer, …

B1: antibody 1439 (antibody, V domains shown)
VH: QVQLQESGPGLVKPSETLSLTCTVSGDSISTYYWSWIRQPPGKGLEWIGYIHYSGSTNYNPSLKSRVAVSVDTSKNQFSLKLSSVTAADTAVYYCARGGGVFGVVINFDYWGQGILVTVSS
VL: NFMLTQPYSVSESPGKTVTISCTRSSGSIASNYVQWYQQRPGSAPTTVIYEDNQRPSGVPDRFSGSIDSSSNSASLTISGLKTEDEADYYCQSRDSSNPVVFGGGTKLTVL
With B1 the “Pseudo Neut, WA1/2020 IC50 (pM)” value [1] was 30200 pM, the “Pseudo Neut, SARS-CoV 2003 IC50” value [2] was 29 nM and the binding result (MERS-COV (S2)) was “no binding (tested: 10000 ng/ml)”. For the same binder, the “EC50 (read off the curve)” value [3] was ~0.1 µg/mL and the binding result (MERS-COV (S1+S2)) was “no binding (tested: 10000 ng/ml)”.

B2: antibody 1589 (antibody, V domains shown)
VH: EVQLVESGGGLIQVGGSLRLSCAASGLTVTSNYMNWVRQGPGKGLEWVSLIYSGGTTYYADSVKGRFTISRDDSKNTLYLQMNSLRAEDTAVYYCARPIVGARSGMDVWGQGTAVTVSS
VL: DIQMTQSPSSLSASVGDRVTITCQASQDINKYLNWYQQKPGKAPKLLIYDASNLETGVPSRFSGSGSGTDFTFTISSLQPEDLATYYCHQFDNLPGTFGGGTKVEIK
B2 was tested, and the binding result [4] was “no binding (tested: 0.1 ug/mL)”, the binding result [5] was “no binding (tested: 0.1 ug/mL)” and the “Pseudo Neut, WA1/2020 IC50 (pM)” value [1] was 1170 pM. B2: no binding (tested: 10000 ng/ml) (MERS-COV (S2)); no binding (tested: 10000 ng/ml) (MERS-COV (S1+S2)).

B3: antibody 1959 (antibody, V domains shown)
VH: QVQLVQSGTEVKKPGSSVRVSCQASGDTFTSHAIIWIRQAPGQGLEYLGRIIPVLDITNAAQRFLGRLTLTADKSTTTAYMELSSLRSEDTAVYYCARAPFGLIVMYDHWGQGTLVTVTA
VL: EIVLTQSPGTLSLSPGERATLSCRASQSVSGNFLAWYQQKPGQAPRLLIHETSKRATGIPDRVSGGGSGTDFTLTISRLEPEDFAVYHCQQYGTTAVTFGQGTRLDMK
B3: no binding (tested: not printed) [6]; no binding (tested: not printed) [7]; no binding (tested: not printed) [8]. B3: no binding (tested: not printed) [9].

B4: antibody 1915 (antibody, V domains shown)
VH: QVQLVESGGGVVQPGRSLRLSCAASGFTFSSYAMHWVRQAPGKGLEWVAVISYDGSNKYYADSVKGRFTISRDNSKNTLYLQMDSLRAQDTAVYYCATPRDMFSSGWSSPFDYWGQGTLVTVSS
VL: DIQMTQSPSSLSASVGDRVTITCQASQDISIYLTWYQQKPGKAPKLLIYGASNLEVEVPSRFSGSGSGTEFTLTISSLQPEDFATYFCQHSDDLPVTFGGGTKVEVK
B4: no binding (tested: not printed) [6]; no binding (tested: not printed) [7]; no binding (tested: not printed) [8]. B4: no binding (tested: not printed) [9].

B5: antibody 2793 (antibody, V domains shown)
VH: QVQLVQSGAEVKKPGASVKVSCKVSGFTLPELSIHWVRQAPGKGLEWMGGFDPEDAKTIYAQKFQGRVTMTEDTSTDIAYMELNSLRSDDTAVYYCATGSPFGVVGNWLDPWGQGTLVTVSS
VL: QSALTQPASVSGSPGQSITISCTGTSSDVGDFSYVSWYQQHPGKAPKLMIYEVTKRPSGVSNRFSGSKSGNTASLTISGLQTEDEADYYCTSYTSSRLVLFGGGTKLTVL
For B5, the EC50 [10] was 0.068 nM, the EC50 [11] was 0.113 nM and the binding result [12] was “no binding (tested: 0.1 ug/mL)”. B5: no binding (tested: 10000 ng/ml) [13]; no binding (tested: 10000 ng/ml) (MERS-COV (S2)); no binding (tested: 10000 ng/ml) (MERS-COV (S1+S2)). For the same binder, the Kd [14] was 0.398 nM.

B6: antibody 2432 (antibody, V domains shown)
VH: QVQLVQSGAEVKKPGSSVKVSCKASGDTFSSYAISWVRQAPGQGLEWLGGIIPIFGSADYAQKFQGRVTITADEFTSTAYMELSSLRSEDTAVYFCAREKYGDYGEGPLYNFDYWGQGTLVTVSS
VL: not shown
With B6 the EC50 [10] was 0.024 nM, the binding result [15] was “no binding” and the Kd [16] was 0.243 nM.

B7: antibody 2606 (antibody, V domains shown)
VH: EVQLVESGGGLVKPGGSLRLSCAASGFTFSSYSMNWVRQAPGKGLEWVSSITSSSGYMYYADSVKGRFTISRDNAKNSLYLQLNSLRAEDTAVYYCAKDSAFDLWEVRSYYYVMDVWGQGTTVTVSS
VL: not shown
For B7, the EC50 [10] was 0.057 nM, the binding result [15] was “no binding” and the Kd [16] was 0.00787 nM.

— patent US20230382979A1 (ADAPTIVE BIOTECHNOLOGIES, published 2023)
